The chains are these.
T1: NR2F2 (COUP-TFII) (Mus musculus, UniProt P43135 P43135:1-414)
T1 sequence: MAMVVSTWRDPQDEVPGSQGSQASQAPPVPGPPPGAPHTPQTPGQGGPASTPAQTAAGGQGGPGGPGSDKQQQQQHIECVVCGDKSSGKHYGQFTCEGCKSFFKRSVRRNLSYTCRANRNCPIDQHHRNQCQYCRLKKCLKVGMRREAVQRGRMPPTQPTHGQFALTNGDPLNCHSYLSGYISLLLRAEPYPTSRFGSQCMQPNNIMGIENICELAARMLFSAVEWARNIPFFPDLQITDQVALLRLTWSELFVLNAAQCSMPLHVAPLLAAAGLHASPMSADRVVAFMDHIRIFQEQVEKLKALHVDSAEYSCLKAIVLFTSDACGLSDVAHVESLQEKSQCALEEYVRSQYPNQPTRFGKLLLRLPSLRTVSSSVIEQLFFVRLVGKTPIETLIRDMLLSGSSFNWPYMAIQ

B1: sele wild-type (dsDNA)
DNA 1: GTAATGCCCCCTGTGACCCATATTGTCTCGCTCTTTCCTTTATA
DNA 2: TATAAAGGAAAGAGCGAGACAATATGGGTCACAGGGGGCATTAC
B2: mrc1a site 2 wild-type (dsDNA)
DNA 1: TTCATTTCCTTTTTGCTGAGCTTTATTTTC
DNA 2: GAAAATAAAGCTCAGCAAAAAGGAAATGAA
B3: mrc1a site 1 wild-type (dsDNA)
DNA 1: TTTATGAAGCTTGTACCTTTCATTTCCTTTTTG
DNA 2: CAAAAAGGAAATGAAAGGTACAAGCTTCATAAA
B4: sele mutation (dsDNA)
DNA 1: GTAATGCCCCCTGATTAACATATTGTCTCGCTCTTTCCTTTATA
DNA 2: TATAAAGGAAAGAGCGAGACAATATGTTAATCAGGGGGCATTAC
B5: mrc1a site 1 mutation (dsDNA)
DNA 1: TTTAATTAGCAGATTTAATTTCATTTCCTTTTTG
DNA 2: CAAAAAGGAAATGAAATTAAATCTGCTAATTAAA
B6: mrc1a site 2 mutation (dsDNA)
DNA 1: TTCATTTCCTTTTTGCATTAATTTATTTTC
DNA 2: GAAAATAAATTAATGCAAAAAGGAAATGAA

Results on 6 molecules are retold here after patent publication US20210079343, “ENDOTHELIAL CELL FACTORS AND METHODS THEREOF” (THE CHILDREN'S MEDICAL CENTER CORPORATION, published 2021).

The target in one series is T1, NR2F2 (COUP-TFII). As to the kind of experiment: EMSA; 4 C, 20 mM Tris pH 8.0, 10 mM KCl, 20% glycerol; super-shifted by anti-NR2F2; outcompeted by unlabeled wild-type probe. The settings on record: tags: GST (pGEX2TK, E. coli BL21). The text has this: (§1) In each case, disruption of the Ets, SoxF or NHR motifs led to a significant reduction or complete loss of GFP expression in CHT ECs (see e.g., FIG. 3F). In control constructs where mutations were targeted to intervening sequences between the Ets, SoxF and NHR motifs, GFP expression was unperturbed (see e.g., FIG. 3F). Studies of arterial-venous specification in zebrafish have shown that the NHR Nr2f2, also known as COUP-TFII, promotes venous endothelial cell fate (see e.g., Aranguren et al. Transcription factor COUP-TFII is indispensable for venous and lymphatic development in zebrafish and Xenopus laevis. Biochemical and biophysical research communications 410, 121-126, 2011). To test whether Nr2f2 could directly bind the enhancer sequences, an in vitro gel electrophoretic mobility shift assay was performed. Incubation of murine NR2F2-GST protein with labeled probe from either the 125 bp mrc1a or 158 bp sele zebrafish enhancers led to DNA:protein complexes that were super-shifted upon addition of an NR2F2 antibody and could be outcompeted by an unlabeled competitor probe (see e.g., FIG. 10A-FIG. 10E).
(§2) The Nr2f2 fragment was cloned into the pGEX2TK™ vector to generate GST-tagged Nr2f2 and fidelity was verified by sequencing. The pGEX2TK-Nr2f2 protein plasmid was transformed into E. coli BL21 competent cells. Proteins were expressed and purified, and purified proteins were quantified against BSA. EMSAs were performed. Probes were generated by annealing 100 pmol of sense and antisense oligonucleotides, and 1-2 pmol of probe was used in each reaction. Gel shift reactions were conducted at 4° C. in 20% glycerol, 20 mM Tris (pH 8.0), 10 mM KCl, 1 mM DTT, 12.5 ng poly dI/C, 6.25 pmol of random, single-stranded oligonucleotides, BSA and the probe in the amount specified above. Samples involving the Nr2f2 protein were loaded on a 6% gel to resolve protein-DNA complexes. In reactions with cold competitors, 20x unlabeled probes were included in the reactions. Anti-NR2F2 antibody (R&D Biosystems™; cat # PP-H7147-00) was at the same amount of the Nr2f2 protein to obtain super-shifts.
In general terms: In EMSA bound probe runs differently from free probe, usually more slowly.
For B1, the binding result is recorded as “binds”.

As to B2, the binding result is on record as “binds”.

Consider B3, for which the binding result is on record as “binds”.

A further series has as its target T1, NR2F2 (COUP-TFII). As to the kind of experiment: competition; 20x unlabeled mutant unable to outcompete wild-type probe in EMSA. The settings on record: tags: GST (pGEX2TK, E. coli BL21).
Text: as §1, §2
Consider B4, for which the binding result is on record as “no binding”.

As to B5, the binding result is recorded as “no binding”.

For B6, the binding result is “no binding”.
